*1 amine or outer side, *2 acyl side, *3 side chain or, on linkers, in order; H or OH if unused. Bridges are numbered along the chain shown (N, C = ends). Roman numbers before positions name the chains, in order. [ ]: non-standard residue; d: D form. X1 = CC(C)CCC[C@@H](C)[C@H]1CC[C@H]2[C@@H]3CC=C4C[C@@H](OC(=O)NCCOCCOCCOCCOCCC(=O)NCCOCCOCCOCCOCCOCCOCCOCCOCCOCCOCCOCCOCCOCCOCCOCCOCCOCCOCCOCCOCCOCCOCCOCCOCCOCCOCCOCCOCCC(=O)NC(CCC(=O)[*:1])(CCC(=O)[*:2])CCC(=O)[*:3])CC[C@]4(C)[C@H]3CC[C@]12C; PEG4 = NCCOCCOCCOCCOCCC(=O)O
Assays:
[1] = Solubility in standard aqueous buffers; type: physicochemical; settings: standard aqueous buffers (e.g., PBS, HEPES) at physiological pH
[2] = Rat pharmacokinetics, IV and SC; type: in vivo, Sprague Dawley rats
[3] = Rat pharmacokinetics, IV and SC
[4] = Non-human primate pharmacokinetics, IV and SC; type: in vivo, cynomolgus monkeys; settings: male, cynomolgus monkey, plasma; for half-life: pH 7.4
[5] = Sprague-Dawley, rat, plasma, sc
[6] = rats, IV, compared to PIE12-trimer
[7] = male, rat, in vivo, iv, 1 mg/kg, pH 7.4
[8] = male, rat, in vivo, sc, 1 mg/kg
[9] = male, rat, in vivo, iv, 1 mg/kg

## CC(=O)N[C@H](Cc1c[nH]cn1)C(=O)N1CCC[C@@H]1C(=O)N[C@@H]1CSSC[C@H](C(=O)N[C@H](CCC(=O)O)C(=O)N[C@H](CC(C)C)C(=O)NCC(=O)N[C@H](CCCCNC(=O)CCOCCOCCOCCOCCNC(=O)CCOCC(COCCC(=O)NCCOCCOCCOCCOCCC(=O)NCCCC[C@@H](NC(=O)CNC(=O)[C@@H](CC(C)C)NC(=O)[C@@H](CCC(=O)O)NC(=O)[C@H]2CSSC[C@@H](NC(=O)[C@H]3CCCN3C(=O)[C@@H](Cc3c[nH]cn3)NC(C)=O)C(=O)N[C@H](CC(=O)O)C(=O)N[C@H](Cc3ccc(O)cc3)C(=O)N3CCC[C@@H]3C(=O)N[C@H](CCC(=O)O)C(=O)N[C@H](Cc3c[nH]c4ccccc34)C(=O)N[C@H](CCC(N)=O)C(=O)N[C@H](Cc3c[nH]c4ccccc34)C(=O)N[C@H](CC(C)C)C(=O)N2)C(N)=O)(COCCC(=O)NCCOCCOCCOCCOCCC(=O)NCCCC[C@@H](NC(=O)CNC(=O)[C@@H](CC(C)C)NC(=O)[C@@H](CCC(=O)O)NC(=O)[C@H]2CSSC[C@@H](NC(=O)[C@H]3CCCN3C(=O)[C@@H](Cc3c[nH]cn3)NC(C)=O)C(=O)N[C@H](CC(=O)O)C(=O)N[C@H](Cc3ccc(O)cc3)C(=O)N3CCC[C@@H]3C(=O)N[C@H](CCC(=O)O)C(=O)N[C@H](Cc3c[nH]c4ccccc34)C(=O)N[C@H](CCC(N)=O)C(=O)N[C@H](Cc3c[nH]c4ccccc34)C(=O)N[C@H](CC(C)C)C(=O)N2)C(N)=O)NC(=O)CCOCCOCCOCCOCCOCCOCCOCCOCCOCCOCCOCCOCCOCCOCCOCCOCCOCCOCCOCCOCCOCCOCCOCCOCCNC(=O)CCN2C(=O)CC(S[C@H]3CC[C@@]4(C)C(=CC[C@H]5[C@@H]6CC[C@H]([C@H](C)CCCC(C)C)[C@@]6(C)CC[C@@H]54)C3)C2=O)C(N)=O)NC(=O)[C@@H](CC(C)C)NC(=O)[C@@H](Cc2c[nH]c3ccccc23)NC(=O)[C@@H](CCC(N)=O)NC(=O)[C@@H](Cc2c[nH]c3ccccc23)NC(=O)[C@@H](CCC(=O)O)NC(=O)[C@H]2CCCN2C(=O)[C@@H](Cc2ccc(O)cc2)NC(=O)[C@@H](CC(=O)O)NC1=O (some centres unmarked) [Chol-PIE12-trimer]
[1]
  solubility: ~ 40 mg/ml
[2]; Sprague-Dawley, rat, plasma, iv
  Vd: 0.134 L/kg
[2]; [5]
  Tmax: 4 h
  bioavailability: 73%
[2]; [6]
  increase of IV half-life: 3 fold
  reduction of clearance: 14-18 fold
[2]; rats, SC, based on terminal-phase elimination, compared to PIE12-trimer
  extension of apparent half-life upon SC dosing: ~ 3 fold
[3]; [7]
  half-life: 1.6 h
[3]; [8]
  bioavailability: 51%
[3]; rat, in vivo, iv, 1 mg/kg
  C0: 4530 nM

## I: Ac-[dH][dP][dC][dD][dY][dP][dE][dW][dQ][dW][dL][dC][dE][dL]G[PEG4][dK]-NH2 / II: Ac-[dH][dP][dC][dD][dY][dP][dE][dW][dQ][dW][dL][dC][dE][dL]G[PEG4][dK]-NH2 / III: Ac-[dH][dP][dC][dD][dY][dP][dE][dW][dQ][dW][dL][dC][dE][dL]G[PEG4][dK]-NH2 (disulfide I:3-I:12, II:3-II:12, III:3-III:12; linker I:17-II:17-III:17 via X1) [CPT31]
[4]; iv, 1 mg/kg
  AUC(0-inf): 11.6 µM·h
  C0: 3110 nM
  Vd: 0.097 L/kg
  clearance: 0.158 mL/min/kg
  half-life: 7.4 h
[4]; sc, 3 mg/kg
  AUC(0-inf): 29.4 µM·h
  Cmax: 922 nM
  Tmax: 8 h
  bioavailability: 80%
  half-life: 18.8 h
[1]
  solubility: ~ 40 mg/ml
[3]; [9]
  AUC(0-inf): 3.84 µM·h
  C0: 2950 nM
  Vd: 0.134 L/kg
  clearance: 0.483 mL/min/kg
[3]; [7]
  half-life: 3.3 h
[3]; [8]
  AUC(0-inf): 2.11 µM·h
  Cmax: 261 nM
  Tmax: 2 h
  half-life: 5.4 h
[3]; rats, IV, compared to Chol-PIE12-trimer
  prolongation of IV half-life: 2 fold
[3]; rats, SC, compared to Chol-PIE12-trimer
  prolongation of SC half-life: 1.4 fold

Reference: PMC5893306 (Molecular pharmaceutics, 2018)
